The target in one data set is T1, human LDLa-linker (Homo sapiens, UniProt Q8WXD0).
T1 construct: human LDLa linker [huRXFP2-LDLa-linker(38-105)-ratFc-8XHIS]; enterokinase cleavage site (C); rat Fc (C, cleaved yes); 8xHis (C, cleaved yes); made in house; host or cells: Expi293
The data set is described as follows: Biacore S200 binding to human LDLa-linker protein. The method, then:
Goat anti Rat Fc gamma fragment specific (Jackson Immunoresearch, 112-005-071) was immobilized at 30 µg/mL to a Series S CM5 chip (Cytiva Life Sciences). In three separate runs, twenty different purified recombinant rat anti RXFP2 antibodies were then captured to the CM5 chip at a concentration of 5 µg/mL. The antibody panel was captured; rat LDLa-linker or human LDLa-linker protein was flowed as analyte at the following concentrations: 20 nM, 10 nM, 5 nM, 2.5 nM, […], and 0 nM. Antibody kinetics were evaluated using a 1:1 fit model (Biacore S200).
Background: SPR reads the build-up and loss of mass on a sensor chip optically.

Data set [1] concerns the target T2, rat RXFP2 (Rattus norvegicus, UniProt F7EMH8). Kind of data set: INSL3-stimulated CYP11B1 mRNA expression in H295R stably expressing rat RXFP2. To be noted: INSL3 EC80 (3.5 nM), 48 h, qPCR; N = 2. The arrangement: expressed in transfected cells. The class given is cell-based. The method, then: (§1) RXFP2 antagonists were added to H295R-rRXFP2 before addition of INSL3 EC80 (3.5 nM) for 48 h, whereupon the cells and supernatants were collected. CYP11B1 and CYP11B2 mRNA were determined by qPCR and the RXFP2 blocker potencies were calculated (Fig. 5a). Fifteen antibodies have IC50s < 50 nM, and three of the top antibodies (1F2, 4G6, and 2D4) were selected for evaluation in steroid hormone secretion assays by ELISA.
(§2) Data entered as XY table, with x = [Inhibitor] (nM) and y = CYP11B2 or CYP11B1 fold change.
In general terms: Real-time PCR tracks product formation cycle by cycle.

A short description of data set [2]: Pharmacokinetic study of RXFP2 mAbs in rat. The class given is in vivo, Wistar Han rats. As to the method:
For the pharmacokinetic study of RXFP2 mAbs in rat, 1G1, 2D4, 4B1, 4G6, 1F2, and 3F3 were prepared in phosphate buffered saline (0.100 mg/mL) with low endotoxin (≤ 0.76 EU/mL). Adult male Wistar Han rats (n = 3/mAb) were administered 1 mg/kg subcutaneously (10 mL/kg). Blood samples (100 µL) were collected in EDTA containing tubes at 0.25, 3, 6 24, 48, 96, 168 (day 7), 336 (day 14), 504 (day 21), and 672 (day 28) hours post dose, immediately centrifuged (6100 rpm), and 50 µL plasma stored at − 80 °C until assay. Rats maintained health throughout the study and were anesthetized (isoflurane to effect) and euthanized on day 28.
Frozen rat plasma samples were thawed and analyzed using a qualified analytical method based on sample dilution, followed by Electrochemiluminescence immunoassay analysis. The lower limit of quantification (LLQ) was 0.1 µg/mL using a 10 µL aliquot of 51-fold diluted rat plasma with a higher limit of quantification (HLQ) of 10 µg/mL. RXFP2 mAbs were captured with LDLa protein and detected with sulfo-tag labeled mouse anti-rat IgG2b. The computer systems that were used to acquire and quantify data included Gyrolab Workstation Version 8.1.5 and Watson LIMS version 7.6.1. Rat pharmacokinetic parameters were calculated by non-compartmental analysis (NCA) analysis using WinNonlin Phoenix 64 (version 8.3). Values are reported in mean ± standard deviation.

The target in data set [3] is T2, rat RXFP2. Kind of data set: INSL3-stimulated CYP11B2 mRNA expression in H295R stably expressing rat RXFP2. In kind it is cell-based. More on the design: expressed in transfected cells. To be noted: INSL3 EC80 (3.5 nM), 48 h, qPCR; N = 2. The method, then:
as §1, §2

Data set [4] concerns the target T2, rat RXFP2. Kind of data set: INSL3-stimulated cAMP assay in HEK293 stably expressing rat RXFP2.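 Further: cAMP measured with an HitHunter kit in 384-well plates, 11-point dose–response curves up to 1 µM antibody, four-parameter variable-slope fit.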 To be noted: INSL3 EC80-stimulated cAMP, stable expression, N = 2.
Procedure: (§3) RXFP activity assays were developed in HEK293 with stable expression of RXFP2 or RXFP1.
(§4) The same approach was used to generate stable HEK293 lines expressing human and rat RXFP1 and RXFP2 cDNA. The cAMP assay was conducted using the Eurofin Hithunter kit per manufacturer’s instructions in a 384-well format. All dose curve fitting and EC50 and IC50 determinations were performed in Prism (v9.3.0) using the non-linear fit, variable slope (four parameter) function.
For another data set, the target named is T3, rat RXFP1 (Rattus norvegicus, UniProt Q6R6I6).
T3 sequence (Q6R6I6 1-758): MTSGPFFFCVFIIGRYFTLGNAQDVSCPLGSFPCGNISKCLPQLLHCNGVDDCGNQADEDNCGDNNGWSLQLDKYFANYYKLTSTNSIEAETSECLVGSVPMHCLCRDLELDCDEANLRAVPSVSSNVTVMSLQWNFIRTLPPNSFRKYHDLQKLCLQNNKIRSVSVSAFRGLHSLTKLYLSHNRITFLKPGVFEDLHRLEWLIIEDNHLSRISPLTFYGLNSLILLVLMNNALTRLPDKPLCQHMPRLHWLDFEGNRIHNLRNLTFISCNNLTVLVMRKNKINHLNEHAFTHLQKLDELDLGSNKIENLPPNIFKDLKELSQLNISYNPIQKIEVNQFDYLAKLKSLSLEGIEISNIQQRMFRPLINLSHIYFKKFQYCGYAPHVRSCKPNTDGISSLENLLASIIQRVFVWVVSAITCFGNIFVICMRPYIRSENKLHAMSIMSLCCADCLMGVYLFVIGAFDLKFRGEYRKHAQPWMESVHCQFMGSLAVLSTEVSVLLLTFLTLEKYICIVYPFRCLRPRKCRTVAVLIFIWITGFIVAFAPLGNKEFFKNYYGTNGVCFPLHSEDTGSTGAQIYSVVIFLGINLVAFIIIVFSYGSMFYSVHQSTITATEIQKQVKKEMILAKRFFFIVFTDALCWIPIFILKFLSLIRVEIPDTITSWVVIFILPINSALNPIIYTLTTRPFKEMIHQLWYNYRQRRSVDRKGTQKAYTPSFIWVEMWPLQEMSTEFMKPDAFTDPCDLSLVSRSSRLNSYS
Kind of data set: Relaxin-stimulated cAMP assay in HEK293 stably expressing rat RXFP1. The settings on record: three-point selectivity screen, n = 2. (In general: Changes in cAMP serve as a functional read-out for many G protein-coupled receptors.)

Setting [5] is: male Wistar Han rats, 1 mg/kg s.c., n = 3, mean ± SD.

The term IC50 denotes the concentration that gives 50% inhibition. As usually defined, the Cmax is the highest concentration seen after dosing. What is called Tmax is the time at which the peak concentration occurs.

A value given as a limit tells only on which side of the number the result lay.

T2 sequence (F7EMH8 20-737): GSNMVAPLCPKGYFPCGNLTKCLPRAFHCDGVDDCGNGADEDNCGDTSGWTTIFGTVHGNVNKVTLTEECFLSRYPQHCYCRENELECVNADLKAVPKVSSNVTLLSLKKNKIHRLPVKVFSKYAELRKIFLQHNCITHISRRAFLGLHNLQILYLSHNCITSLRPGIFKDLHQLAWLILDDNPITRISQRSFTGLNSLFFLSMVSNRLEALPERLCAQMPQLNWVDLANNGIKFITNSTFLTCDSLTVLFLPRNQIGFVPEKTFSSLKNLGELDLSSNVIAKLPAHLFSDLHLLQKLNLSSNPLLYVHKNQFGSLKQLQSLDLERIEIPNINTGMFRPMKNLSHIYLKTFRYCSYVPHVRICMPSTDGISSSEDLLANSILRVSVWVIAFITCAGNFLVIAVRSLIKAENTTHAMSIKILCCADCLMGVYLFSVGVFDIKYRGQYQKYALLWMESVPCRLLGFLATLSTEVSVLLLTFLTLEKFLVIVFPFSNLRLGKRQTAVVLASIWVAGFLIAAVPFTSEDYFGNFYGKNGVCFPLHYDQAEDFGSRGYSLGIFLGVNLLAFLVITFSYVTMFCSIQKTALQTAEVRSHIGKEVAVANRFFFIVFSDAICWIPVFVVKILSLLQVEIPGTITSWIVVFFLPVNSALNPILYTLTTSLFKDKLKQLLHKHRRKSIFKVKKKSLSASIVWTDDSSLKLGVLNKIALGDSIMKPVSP
T1 sequence (Q8WXD0 38-105): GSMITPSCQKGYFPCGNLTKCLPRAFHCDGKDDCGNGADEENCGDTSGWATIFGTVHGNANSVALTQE
Procedure for rat RXFP1: as §3, §4

B1: 4G6: Human/rat cross-reactive RXFP2 monoclonal antibody, rat IgG2b backbone; binds the LDLa domain (antibody, V domains shown)
VH: EVQLQQSGPELVKPGASVKLSCKASGYTFTSYVMHWVKQKPEQGLEWIGYKNPSNDGIKYNEKFKGKATLTSDKSSNIAYMELFSLTSEDSAVYYCARSDFGSVWAMDYWGQGTSVTVSS
VL: SIVMTQTPKFLLVSAGDRVTITCKASQSVNDDIVWYQQKPGQSPKLLIYYASNRYTGVPDRFTGSGYGTDFTFTISTVQAGDLAVYFCQQDYSSPFTFGSGTKLEIK
With B1, the “cross reactivity to the human LDLa-linker” value with human LDLa-linker is “cross reactivity”. This molecule came in with an IC50 in the data set with rat RXFP2 [1] of 330 pM. Further, the “half-life, extrapolated values” in data set [2] (Wistar Han rats, 1 mg/kg sc., over 28 days) is not below 11 days. In addition, the “estimated dose to achieve tenfold higher IC50 HEK-rRXFP2 cAMP activity for approximately 28 days in rat” value in data set [2] (from trough concentration, dose-linearity assumed) is listed as “approximately 30 mg/kg”. In data set [2] (setting [5]), the AUClast came to 1350 ± 125 µg·h/mL, the Cmax was 4150 ± 1200 ng/mL and the Tmax turned out to be 9.33 ± 4.04 days. Besides, in the data set with rat RXFP2 [3], half-maximal inhibition (IC50) required 100 pM. Also, the “HEK293-rat RXFP2 cAMP % Max Response” value with rat RXFP2 [4] is 82.5%. Moreover, the IC50 with rat RXFP2 [4] (read-out: HEK293-rat RXFP2 cAMP IC50) is 14100 pM. Moreover, in the data set with rat RXFP1, the “blockade of rRXFP1 (relaxin-stimulated cAMP)” value is on record as “did not block”.

These data come from PMC11162469, “Discovery of RXFP2 genetic association in resistant hypertensive men and RXFP2 antagonists for the treatment of resistant hypertension” (Scientific Reports, 2024).
